Laboratory results taken from PMC3423971 (Structure (London, England : 1993), 2012).

Key:
ubiquitin-AMC = ubiquitin-AMC (UniProt P0CG48 1-76, AMC (ubiquitin-AMC)); assay: cell-based or functional assay
AUC [1] = molecular target: the molecule itself; assay: AUC
AUC [2] = molecular target: the molecule itself; assay: AUC; remark: listed apart in the source
crystal structure = molecular target: the molecule itself; assay: crystal structure

Binder	KM of Ub-AMC cleavage (steady-state kinetics, 30°C) (ubiquitin-AMC)	Kd (AUC [1])	stoichiometry N (AUC [2])	binding result (crystal structure)
wild-type SAGA deubiquitinating module (DUBm): Ubp8, Sgf11, Sus1, Sgf73(1-96) (complex, yeast) chain 1: MSICPHIQQVFQNEKSKDGVLKTCNAARYILNHSVPKEKFLNTMKCGTCHEINSGATFMCLQCGFCGCWNHSHFLSHSKQIGHIFGINSNNGLLFCFKCEDYIGNIDLINDAILAKYWDDVCTKTMVPSMERRDGLSGLINMGSTCFMSSILQCLIHNPYFIRHSMSQIHSNNCKVRSPDKCFSCALDKIVHELYGALNTKQASSSSTSTNRQTGFIYLLTCAWKINQNLAGYSQQDAHEFWQFIINQIHQSYVLDLPNAKEVSRANNKQCECIVHTVFEGSLESSIVCPGCQNNSKTTIDPFLDLSLDIKDKKKLYECLDSFHKKEQLKDFNYHCGECNSTQDAIKQLGIHKLPSVLVLQLKRFEHLLNGSNRKLDDFIEFPTYLNMKNYCSTKEKDKHSENGKVPDIIYELIGIVSHKGTVNEGHYIAFCKISGGQWFKFNDSMVSSISQEEVLKEQAYLLFYTIRQVN chain 2: MTEETITIDSISNGILNNLLTTLIQDIVARETTQQQLLKTRYPDLRSYYFDPNGSLDINGLQKQQESSQYIHCENCGRDVSANRLAAHLQRCLSRGARR chain 3: MTMDTAQLKSQIQQYLVESGNYELISNELKARLLQEGWVDKVKDLTKSEMNINESTNFTQILSTVEPKALEMVSDSTRETVLKQIREFLEEIVDTQ chain 4: MRSGDAEIKGIKPKVIEEYSLSQGSGPSNDSWKSLMSSAKDTPLQYDHMNRESLKKYFNPNAQLIEDPLDKPIQYRVCEKCGKPLALTAIVDHLEN	24 µM			
DUBm-ΔSgf11-ZnF-Ubp8^S144N: Ubp8 S144N, Sgf11(1-72), Sus1, Sgf73(1-96) (complex, yeast) chain 1: MSICPHIQQVFQNEKSKDGVLKTCNAARYILNHSVPKEKFLNTMKCGTCHEINSGATFMCLQCGFCGCWNHSHFLSHSKQIGHIFGINSNNGLLFCFKCEDYIGNIDLINDAILAKYWDDVCTKTMVPSMERRDGLSGLINMGNTCFMSSILQCLIHNPYFIRHSMSQIHSNNCKVRSPDKCFSCALDKIVHELYGALNTKQASSSSTSTNRQTGFIYLLTCAWKINQNLAGYSQQDAHEFWQFIINQIHQSYVLDLPNAKEVSRANNKQCECIVHTVFEGSLESSIVCPGCQNNSKTTIDPFLDLSLDIKDKKKLYECLDSFHKKEQLKDFNYHCGECNSTQDAIKQLGIHKLPSVLVLQLKRFEHLLNGSNRKLDDFIEFPTYLNMKNYCSTKEKDKHSENGKVPDIIYELIGIVSHKGTVNEGHYIAFCKISGGQWFKFNDSMVSSISQEEVLKEQAYLLFYTIRQVN chain 2: MTEETITIDSISNGILNNLLTTLIQDIVARETTQQQLLKTRYPDLRSYYFDPNGSLDINGLQKQQESSQYIH chain 3: MTMDTAQLKSQIQQYLVESGNYELISNELKARLLQEGWVDKVKDLTKSEMNINESTNFTQILSTVEPKALEMVSDSTRETVLKQIREFLEEIVDTQ chain 4: MRSGDAEIKGIKPKVIEEYSLSQGSGPSNDSWKSLMSSAKDTPLQYDHMNRESLKKYFNPNAQLIEDPLDKPIQYRVCEKCGKPLALTAIVDHLEN	17 µM	28 µM	2	
DUBm-ΔSgf11-ZnF-Ubp8^S144N/S149N: Ubp8 S144N S149N, Sgf11(1-72), Sus1, Sgf73(1-96) (complex, yeast) chain 1: MSICPHIQQVFQNEKSKDGVLKTCNAARYILNHSVPKEKFLNTMKCGTCHEINSGATFMCLQCGFCGCWNHSHFLSHSKQIGHIFGINSNNGLLFCFKCEDYIGNIDLINDAILAKYWDDVCTKTMVPSMERRDGLSGLINMGNTCFMNSILQCLIHNPYFIRHSMSQIHSNNCKVRSPDKCFSCALDKIVHELYGALNTKQASSSSTSTNRQTGFIYLLTCAWKINQNLAGYSQQDAHEFWQFIINQIHQSYVLDLPNAKEVSRANNKQCECIVHTVFEGSLESSIVCPGCQNNSKTTIDPFLDLSLDIKDKKKLYECLDSFHKKEQLKDFNYHCGECNSTQDAIKQLGIHKLPSVLVLQLKRFEHLLNGSNRKLDDFIEFPTYLNMKNYCSTKEKDKHSENGKVPDIIYELIGIVSHKGTVNEGHYIAFCKISGGQWFKFNDSMVSSISQEEVLKEQAYLLFYTIRQVN chain 2: MTEETITIDSISNGILNNLLTTLIQDIVARETTQQQLLKTRYPDLRSYYFDPNGSLDINGLQKQQESSQYIH chain 3: MTMDTAQLKSQIQQYLVESGNYELISNELKARLLQEGWVDKVKDLTKSEMNINESTNFTQILSTVEPKALEMVSDSTRETVLKQIREFLEEIVDTQ chain 4: MRSGDAEIKGIKPKVIEEYSLSQGSGPSNDSWKSLMSSAKDTPLQYDHMNRESLKKYFNPNAQLIEDPLDKPIQYRVCEKCGKPLALTAIVDHLEN	13 µM			
DUBm-ΔSgf11-ZnF-Ubp8^WT: Ubp8, Sgf11(1-72), Sus1, Sgf73(1-96) (complex, yeast) chain 1: MSICPHIQQVFQNEKSKDGVLKTCNAARYILNHSVPKEKFLNTMKCGTCHEINSGATFMCLQCGFCGCWNHSHFLSHSKQIGHIFGINSNNGLLFCFKCEDYIGNIDLINDAILAKYWDDVCTKTMVPSMERRDGLSGLINMGSTCFMSSILQCLIHNPYFIRHSMSQIHSNNCKVRSPDKCFSCALDKIVHELYGALNTKQASSSSTSTNRQTGFIYLLTCAWKINQNLAGYSQQDAHEFWQFIINQIHQSYVLDLPNAKEVSRANNKQCECIVHTVFEGSLESSIVCPGCQNNSKTTIDPFLDLSLDIKDKKKLYECLDSFHKKEQLKDFNYHCGECNSTQDAIKQLGIHKLPSVLVLQLKRFEHLLNGSNRKLDDFIEFPTYLNMKNYCSTKEKDKHSENGKVPDIIYELIGIVSHKGTVNEGHYIAFCKISGGQWFKFNDSMVSSISQEEVLKEQAYLLFYTIRQVN chain 2: MTEETITIDSISNGILNNLLTTLIQDIVARETTQQQLLKTRYPDLRSYYFDPNGSLDINGLQKQQESSQYIH chain 3: MTMDTAQLKSQIQQYLVESGNYELISNELKARLLQEGWVDKVKDLTKSEMNINESTNFTQILSTVEPKALEMVSDSTRETVLKQIREFLEEIVDTQ chain 4: MRSGDAEIKGIKPKVIEEYSLSQGSGPSNDSWKSLMSSAKDTPLQYDHMNRESLKKYFNPNAQLIEDPLDKPIQYRVCEKCGKPLALTAIVDHLEN	19 µM	~17 µM	2	
Ubp8 (wild type) (enzyme, yeast) MSICPHIQQVFQNEKSKDGVLKTCNAARYILNHSVPKEKFLNTMKCGTCHEINSGATFMCLQCGFCGCWNHSHFLSHSKQIGHIFGINSNNGLLFCFKCEDYIGNIDLINDAILAKYWDDVCTKTMVPSMERRDGLSGLINMGSTCFMSSILQCLIHNPYFIRHSMSQIHSNNCKVRSPDKCFSCALDKIVHELYGALNTKQASSSSTSTNRQTGFIYLLTCAWKINQNLAGYSQQDAHEFWQFIINQIHQSYVLDLPNAKEVSRANNKQCECIVHTVFEGSLESSIVCPGCQNNSKTTIDPFLDLSLDIKDKKKLYECLDSFHKKEQLKDFNYHCGECNSTQDAIKQLGIHKLPSVLVLQLKRFEHLLNGSNRKLDDFIEFPTYLNMKNYCSTKEKDKHSENGKVPDIIYELIGIVSHKGTVNEGHYIAFCKISGGQWFKFNDSMVSSISQEEVLKEQAYLLFYTIRQVN				binds
Ubp8 S144N (enzyme, yeast) MSICPHIQQVFQNEKSKDGVLKTCNAARYILNHSVPKEKFLNTMKCGTCHEINSGATFMCLQCGFCGCWNHSHFLSHSKQIGHIFGINSNNGLLFCFKCEDYIGNIDLINDAILAKYWDDVCTKTMVPSMERRDGLSGLINMGNTCFMSSILQCLIHNPYFIRHSMSQIHSNNCKVRSPDKCFSCALDKIVHELYGALNTKQASSSSTSTNRQTGFIYLLTCAWKINQNLAGYSQQDAHEFWQFIINQIHQSYVLDLPNAKEVSRANNKQCECIVHTVFEGSLESSIVCPGCQNNSKTTIDPFLDLSLDIKDKKKLYECLDSFHKKEQLKDFNYHCGECNSTQDAIKQLGIHKLPSVLVLQLKRFEHLLNGSNRKLDDFIEFPTYLNMKNYCSTKEKDKHSENGKVPDIIYELIGIVSHKGTVNEGHYIAFCKISGGQWFKFNDSMVSSISQEEVLKEQAYLLFYTIRQVN				binds
DUBm-ΔSgf11-ZnF-Ubp8^S149N: Ubp8 S149N, Sgf11(1-72), Sus1, Sgf73(1-96) (complex, yeast) chain 1: MSICPHIQQVFQNEKSKDGVLKTCNAARYILNHSVPKEKFLNTMKCGTCHEINSGATFMCLQCGFCGCWNHSHFLSHSKQIGHIFGINSNNGLLFCFKCEDYIGNIDLINDAILAKYWDDVCTKTMVPSMERRDGLSGLINMGSTCFMNSILQCLIHNPYFIRHSMSQIHSNNCKVRSPDKCFSCALDKIVHELYGALNTKQASSSSTSTNRQTGFIYLLTCAWKINQNLAGYSQQDAHEFWQFIINQIHQSYVLDLPNAKEVSRANNKQCECIVHTVFEGSLESSIVCPGCQNNSKTTIDPFLDLSLDIKDKKKLYECLDSFHKKEQLKDFNYHCGECNSTQDAIKQLGIHKLPSVLVLQLKRFEHLLNGSNRKLDDFIEFPTYLNMKNYCSTKEKDKHSENGKVPDIIYELIGIVSHKGTVNEGHYIAFCKISGGQWFKFNDSMVSSISQEEVLKEQAYLLFYTIRQVN chain 2: MTEETITIDSISNGILNNLLTTLIQDIVARETTQQQLLKTRYPDLRSYYFDPNGSLDINGLQKQQESSQYIH chain 3: MTMDTAQLKSQIQQYLVESGNYELISNELKARLLQEGWVDKVKDLTKSEMNINESTNFTQILSTVEPKALEMVSDSTRETVLKQIREFLEEIVDTQ chain 4: MRSGDAEIKGIKPKVIEEYSLSQGSGPSNDSWKSLMSSAKDTPLQYDHMNRESLKKYFNPNAQLIEDPLDKPIQYRVCEKCGKPLALTAIVDHLEN	11 µM			
